According to the supplement of paper PMC9732359:
± gives the uncertainty stated by the source.

Experiment: protein stability index of a GFP-peptide fusion (yeast GPS) (PSI 1-4); higher = more stable; sorted into four equal gates, so the index is relative within each strain
Outline: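 Tiled 17-residue peptides from yeast proteins were fused downstream of GFP on a plasmid that also expresses Cherry, and the pooled library was carried in yeast. Mid-log cultures grown in leucine-free medium were sorted into four equal gates by GFP/Cherry fluorescence ratio. Plasmids from each gate were PCR-amplified and Illumina-sequenced, and reads were assigned to strains by barcodes. Each peptide's protein stability index is the sum, over gates, of the gate's read frequency multiplied by its gate number.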

Sequence | protein stability index (doa10∆) | protein stability index (pdr5∆) | protein stability index (san1∆) | protein stability index (ubr1∆)
DTDKLPIKNRTSKSFSK [SIN4] | 2.83 ± 0.1 | 2.85 ± 0.067 | 2.61 ± 0.11 | 2.92 ± 0.068
IREIDVAGGKKALAIFV [RPS7A] | 2.29 ± 0.089 | 1.75 ± 0.11 | 1.49 ± 0.17 | 1.77 ± 0.066
MPDEFNTLYTAIITDDL [SRP72] | 2.39 ± 0.047 | 2.5 ± 0.043 | 2.6 ± 0.035 | 2.64 ± 0.043
EDCVEEFFHLQHYLDTA [QCR6] | 3.21 ± 0.085 | 3.4 ± 0.081 | 3.13 ± 0.063 | 3.31 ± 0.068
QNSYADKVTSQAVNNLI [RPP1] | 1.82 ± 0.047 | 1.93 ± 0.09 | 1.68 ± 0.099 | 2.11 ± 0.068
CVDDNSKISFIDEDKLY [SSN2] | 3.59 ± 0.25 | 2.98 ± 0.1 | – | 2.82 ± 0.29
DNEQNLESDFVTGASQF [PRE2] | 2.92 ± 0.095 | 3.33 ± 0.098 | 3.23 ± 0.077 | 2.96 ± 0.076
SHLWEIDIPLDEQAFYN [RPC37] | – | 2.45 ± 0.27 | 2.98 ± 0.24 | –
DVVGTLSRNGKPVMEVT [FAS1] | 2.62 ± 0.13 | 2.81 ± 0.13 | 2.65 ± 0.12 | 2.63 ± 0.08
EVVEVQEETVVEQTAEV [RPS12] | 3.15 ± 0.1 | 3.36 ± 0.11 | 2.97 ± 0.076 | 3.24 ± 0.097
ETNLQTFLPPLLLKLAS [ECM29] | 1.65 ± 0.038 | 1.85 ± 0.043 | 1.62 ± 0.063 | 2.11 ± 0.034
QDDEYVKDWLYDSRPLE [PRP8] | 3.25 ± 0.16 | 3.43 ± 0.11 | 3.18 ± 0.13 | 3.02 ± 0.068
IHLLHDDRGPVLESIVA [BRR2] | 2.48 ± 0.089 | 1.78 ± 0.06 | 3.24 ± 0.05 | 2.63 ± 0.11
AFQLADGIHYILNHIGQ [PRP8] | 2.71 ± 0.14 | 2.97 ± 0.16 | 2.71 ± 0.24 | 2.65 ± 0.14
ELEEQESESERKYDLFQ [SMC2] | 3.32 ± 0.16 | 3.28 ± 0.11 | 3.31 ± 0.068 | 3.29 ± 0.094
HDEKLSDELHNQSTIYE [LIN1] | 2.91 ± 0.11 | 2.74 ± 0.12 | 2.73 ± 0.16 | 2.77 ± 0.097
AGANDTSNNETNNGNDD [GRR1] | 2.8 ± 0.048 | 2.23 ± 0.066 | 2.87 ± 0.072 | 2.89 ± 0.059
DNHSGDATANATANATA [DSN1] | 3.22 ± 0.12 | 3.08 ± 0.064 | 3.32 ± 0.089 | 3.13 ± 0.071
KYKSGGKFSFSPLQKEE [SSN2] | 1.54 ± 0.072 | 1.43 ± 0.064 | 1.46 ± 0.15 | 1.53 ± 0.047
KAHPNFPIALQWTGGRG [FAS1] | 2.62 ± 0.13 | 2.64 ± 0.12 | 2.2 ± 0.096 | 2.01 ± 0.092
TSLITAVYGPRSIRGSF [MTR3] | 2.72 ± 0.073 | 2.72 ± 0.086 | 2.55 ± 0.074 | 2.28 ± 0.058
NQPHQSQTPSFNTNSSF [YOR098C/NUP1] | 2.64 ± 0.042 | 2.99 ± 0.034 | 2.93 ± 0.036 | 3.047 ± 0.03
EPGHAADQEQAKLIRSA [RPO21] | 3.2 ± 0.2 | 3.24 ± 0.2 | 2.69 ± 0.19 | 3.12 ± 0.1
GGSFGNREEFINKLVKA [RPL7B] | 3.01 ± 0.22 | – | – | 2.93 ± 0.078
LTADYDALDIANRIGYI [RPL25] | 3.33 ± 0.045 | 3.4 ± 0.062 | 3.54 ± 0.038 | 3.43 ± 0.052
TGAGVSTSLGIPDFRSS [SIR2] | 2.19 ± 0.079 | 2.51 ± 0.082 | 2.1 ± 0.19 | 2.86 ± 0.078
QVRNQVFMLDTKRLGTP [RGR1] | 2.77 ± 0.099 | 2.46 ± 0.11 | 2.75 ± 0.084 | 2.89 ± 0.17
TADAEILINTARIHAQN [PRE9] | 2.92 ± 0.094 | 2.85 ± 0.073 | 2.83 ± 0.099 | 2.96 ± 0.072

Sequence | protein stability index (doa10∆) | protein stability index (pdr5∆) | protein stability index (san1∆) | protein stability index (ubr1∆)
MSAKAEKKPASKAPAEK [HTB1] | 3.51 ± 0.13 | 3.41 ± 0.12 | 3.16 ± 0.12 | 2.89 ± 0.098
TGNGTTTTSNTSGTNIA [YOR098C/NUP1] | 2.96 ± 0.045 | 2.69 ± 0.047 | 2.46 ± 0.056 | 2.41 ± 0.035
AGVVQDIGSDPTLPRSD [RPB9] | 2.83 ± 0.078 | 3.2 ± 0.093 | 2.9 ± 0.061 | 2.94 ± 0.047
PYMNHKNTSSMDFLNSM [GAL11] | 1.87 ± 0.056 | 1.69 ± 0.055 | 2.48 ± 0.089 | 3.04 ± 0.044
PFKRKMLLVDIIPSRMG [REC8] | 1.81 ± 0.069 | 1.77 ± 0.072 | 2.26 ± 0.11 | 2.15 ± 0.059
LNSMEKDRISHEVVQDD [PCI8] | 2.61 ± 0.079 | 2.69 ± 0.061 | 3.01 ± 0.067 | 2.41 ± 0.12
NIAKDLKWKKGIRGKLV [SMC1] | 1.37 ± 0.12 | 2.04 ± 0.14 | 2.23 ± 0.12 | –
PLDEIPVDVDFNLDLDD [REC8] | 2.7 ± 0.1 | 2.43 ± 0.066 | 2.24 ± 0.088 | 2.25 ± 0.066
GCGTVKRFNIGADPNYR [RPR2] | 3.15 ± 0.12 | 3.36 ± 0.092 | 3.33 ± 0.09 | 3.46 ± 0.068
TIDWVEAGLQLCRQGHN [PRP8] | 2.08 ± 0.18 | 2.77 ± 0.1 | 2.08 ± 0.091 | 2.26 ± 0.085
TKIPQIGDKFASRHGQK [RPB2] | 1.57 ± 0.073 | 2.3 ± 0.07 | 2.77 ± 0.084 | 1.83 ± 0.039
GLRTENVLDYFAESPFF [MED6] | 3.35 ± 0.12 | 3.25 ± 0.18 | 2.94 ± 0.077 | 2.83 ± 0.047
KYLGLKPGSIDAISQVI [FAS1] | 3.1 ± 0.081 | 3.1 ± 0.075 | 2.91 ± 0.048 | 3.01 ± 0.061
PNCPRPNMSICIFGDAF [RPL1A] | 1.75 ± 0.083 | 1.55 ± 0.06 | 1.55 ± 0.2 | 1.53 ± 0.04
VIDIGASGCNVTPIIDG [ARP7] | 2.67 ± 0.088 | 3.03 ± 0.084 | 2.93 ± 0.071 | 3.02 ± 0.05
DLSGADIQAMCTEAGLL [RPT2] | 2.73 ± 0.12 | 3.48 ± 0.13 | 3.46 ± 0.05 | 3.42 ± 0.062
LSAADIVAQSEVEVSTR [RPO31] | 2.33 ± 0.09 | 2.53 ± 0.11 | 2.54 ± 0.094 | 2.84 ± 0.068
YYGCLENDHERGFFHLN [CSN12] | 3.14 ± 0.063 | 3.24 ± 0.068 | 3.21 ± 0.047 | 3.26 ± 0.044
PDVLLSRVINVVRAASS [RRP6] | 1.26 ± 0.081 | 1.57 ± 0.066 | 1.44 ± 0.12 | 2.17 ± 0.13
MSESSDISAMQPVNPKP [SMX3] | 3.42 ± 0.15 | 3.51 ± 0.16 | 3.4 ± 0.12 | 3.17 ± 0.14
LIYGISDEERDDEDDEH [AAR2] | 3.22 ± 0.11 | 3.05 ± 0.097 | 3.52 ± 0.066 | 3.06 ± 0.099
EHKQLVAEIVQNVISLG [RPC82] | 2.2 ± 0.067 | 1.46 ± 0.13 | 2.16 ± 0.25 | 1.8 ± 0.1
KNNILGSNVLKSGKTIV [RRP43] | 3.05 ± 0.039 | 3.11 ± 0.044 | 3.04 ± 0.043 | 3.076 ± 0.03
FDEEFDPFKTSSFNKRS [IRR1] | 2.76 ± 0.083 | 2.92 ± 0.061 | 2.81 ± 0.11 | 2.78 ± 0.084
SELAVATTSVMMVNNQT [SRB6] | 3.12 ± 0.2 | – | – | –
ETDDNIETVMTQEQFVK [SRB4] | – | 3.23 ± 0.17 | 2.6 ± 0.2 | –
APSLTVPPIASPQQFLR [PRE2] | 1.56 ± 0.05 | 1.95 ± 0.058 | 1.67 ± 0.071 | 1.65 ± 0.045
